Test results as given in patent publication US5456909A, “Glycoform fractions of recombinant soluble complement receptor 1 (sCR1) having extended half-lives in vivo” (T Cell Sciences, Inc., priority 1992, dated 1995).

What was measured:
[1] = system: complement-mediated lysis of antibody coated SRBC; test: Inhibition of complement-mediated hemolysis of antibody-sensitized SRBC in vitro; format: cell-based, human
Description: (§1) SRBC presensitized with rabbit anti-SRBC antibody (Diamedix, Miami, Fla.) were mixed in a V-bottom microtiter wells (Costar, Cambridge, Mass.) with an appropriate dilution of the test plasma and an aliquot of diluted human serum as a complement source. After incubation, 37° C., 1 hour, the unlysed red cells were pelleted by centrifugation, the supernatant transferred to corresponding flat bottom microwells (Costar, Cambridge, Mass.), and absorbance at 415 nm measured. Inhibition of complement-mediated lysis of the antibody coated SRBC was measured as a reduction in the absorbance in the presence of test sample.
A range of dilutions of TP10HD or TP10HD glycoform spanning 7.8 to 1000 ng/ml was examined for each sample.

[2] = Pharmacokinetic studies 1, 4, 5, 7, 9: iv clearance of 125I-labelled TP10HD preparations in rats; format: in vivo, Sprague-Dawley rats; conditions: 1 mg/kg
Description: In Studies 1, 2, 4, 5, 7 and 9, Iodination was carried out by the chloramine-T procedure. Sodium phosphate buffer, 0.5M, pH 7.6, 50 μl, was added to 1 mCi of Na-^125 I (New England Nuclear, Boston, Mass.) as supplied. The sample of TP10HD, typically 100 μg in 100 μl (Study 5=69 μg; Study 7=34 μg; Study 9=91 μg), was added followed by 50 μl of a 15 mg/ml solution of freshly prepared chloramine-T. The reaction mixture was vigorously shaken for 60 seconds. Sodium metabisulfite (50 μl, 15 mg/ml) and sodium iodide (100 μl, 10 mg/ml) were successively pipetted into the reaction vial. The reaction mixture was passed onto a PD10 column (Pharmacia Fine Chemicals, Piscataway, N.J.), pre-equilibrated with phosphate buffered saline, pH 7.2-7.4, containing 0.1% bovine serum albumin (Sigma Chemical Company, St. Louis, Mo.). Ten 0.5 ml fractions were collected and 2 μl aliquots were counted directly and after combining with 100 μl of a 0.1% bovine serum albumin solution and 1 ml of 20% trichloroacetic acid. After incubation at 0° C. for 1 hour, the acid-precipitable protein associated radioactivity was collected by centrifugation for 10 minutes at 1000×g and quantitated by scintillation counting. Fractions containing >90% of the total radioactivity in the acid precipitate were pooled for further use.
Study 1: Radioiodinated TP10HD-CX was mixed with purified unlabeled TP10HD-CX to yield a dosing solution suitable for administering a 1 mg/kg total TP10HD dose containing 16-25×10^6 cpm of radiolabeled TP10HD-CX.
Study 4: Radioiodinated TP10HD-CC was mixed with purified unlabeled TP10HD-CC to yield a dosing solution suitable for administering a 1 mg/kg or a 3 mg/kg total TP10HD dose containing ~20×10^6 cpm.
Study 5: Radioiodinated TP10HD-CCW was mixed with purified unlabeled TP10HD-CCW to yield a dosing solution suitable for administering a 1 mg/kg total TP10HD dose containing ~20×10^6 cpm.
Study 7: Radiolabeled TP10HD-CCS was mixed with purified unlabeled TP10HD-CCS to yield a dosing solution suitable for administering a 1 mg/kg total TP10HD dose containing ~20×10^6 cpm.
Study 9: Radioiodinated TP10HD-CXD was mixed with purified unlabeled TP10HD-CXD to yield a dosing solution suitable for administering a 1 mg/kg total TP10HD dose containing ~20~10^6 cpm.
In Studies 1, 4, 5, 7 and 9, test material was injected intravenously (iv) into four Sprague-Dawley rats (2 male, 2 female). Blood samples were obtained from the retroorbital plexus at 1, 3, 5, 10, 20, 30, 45, and 60 minutes post injection, and the radioactivity determined. Additional post infusion blood samples were taken at 2, 3, and 4 hours postinjection (STUDY 4) and at 120 minutes (STUDY 5). The plasma fraction of the remaining blood sample was retained for further analysis.
Plasma samples were analyzed for residual test material by measuring:
(1) total residual radioactivity;
(2) percentage of radiolabeled material precipitated with TCA;
(3) residual acid precipitable radioactivity in the presence of SDS; and
(4) material immunologically identifiable in an enzyme immunoassay as TP10HD.
Radioisotope data was quantitated as total cpm/ml blood or plasma and as the percentage of a theoretical time zero value. Pharmacokinetic half-life was calculated from the radiometric data.
In Study 9, removal of N-linked oligosaccharide chains was performed by n-glycanase digestion, performed according to manufacturer's instructions (Genzyme Corporation, Boston, Mass.). Typically, 58 μg TP10HD-CX was incubated with 10.5 units of n-glycanase for 18 hours, 37° C., in 0.2M sodium phosphate, pH 8.6 buffer.
Precipitation with trichloroacetic acid was performed as follows: Plasma (20 μl) was precipitated by sequential addition of 450μl of 0.13M Tris HCl, 4% SDS, 10% glycerol, pH 6.8 buffer, followed by 30 μl of fetal bovine serum and 500μl of 20% trichloroacetic acid. […]

[3] = in vivo
Description: Plasma pharmacokinetic half-lives and/or clearance rates of different glycoform preparations were determined.

[4] = system: post-ischemic myocardial inflammation and necrosis; conditions: in vivo; cited from earlier work
[5] = system: reversed passive Arthus reaction; conditions: in vivo; cited from earlier work
[6] = in vivo; cited from earlier work
[7] = Pharmacokinetic study 2: iv TP10HD-CX in rabbits, residual functional activity by hemolysis inhibition; format: in vivo, Dutch rabbits; conditions: for Peak (t = O) conc / Serum half-life / Total Clearance / Volume of Distribution: iv, 1 mg/kg
Description: Study 2: Radioiodinated TP10HD-CX, ~5% w/w, was mixed with purified TP10HD-CX to yield a dosing solution containing 1 mg/ml TP10HD-CX in 0.1M Hepes, 0.15M NaCl, pH 7.4 buffer.
In Study 2, test material was injected iv into two groups of five male Dutch rabbits (approximately 1 kg) at a dose of 1 mg/kg. Blood samples, 2 ml, were taken from an ear artery immediately pre-dosing and at 5, 10, 20, 45, 60, 120, and 180 minutes, and mixed with heparin (final concentration 25 μg/ml). Radioactivity was determined in an aliquot by scintillation counting, and the plasma, obtained by centrifugation at 2000×g for 5 minutes, was stored at -40° C.
Plasma samples were analyzed for residual test material by an in vitro functional assay, inhibition of hemolysis of antibody coated sheep red blood cells (SRBC) by human complement. Pharmacokinetic half-life was calculated from the titer of the residual functional activity.
Rabbit plasma samples were heated at 56° C. for 1 hour in the presence of methylamine (12.5 mM) in order to amidate thioester groups and to inactivate endogenous complement components C3 and C4. […] Test samples were then diluted 1:50 with 0.1 Hepes, 0.15M NaCl, pH 7.4 buffer and assayed.
as §1, with “sample. Standard curves with known quantities of TP10HD can be used to calibrate the assay so that results can be expressed as mg/ml TP10HD remaining in the plasma versus time.” for “sample.”

[8] = Isoelectric point by chromatofocusing (Mono P, pH 7.1 to 4.0); format: physicochemical; conditions: chromatofocusing
Description: Chromatofocusing is a method of separating isoforms of proteins according to their isoelectric point, pI, using an ion exchange column and a pH gradient created with amphoteric buffers of different pH. In this study, analysis of the TP10HD preparations was performed using a pH gradient of 7.1 to 4.0. The chromatographic resin was Mono P, Hr5/5 (Pharmacia Fine Chemicals, Piscataway, N.J.); the starting buffer was 0.025M Bis/Tris titrated to pH 7.1 with saturated iminodiacetic acid; the eluant was polybuffer 7-4 (Pharmacia Fine Chemicals, Piscataway, N.J.) diluted 1:10 (v/v) with water and adjusted to pH 4.0 with HCl; cleaning buffer was 2M NaCl in water. The experimental conditions were chosen to yield a linear pH gradient of 7.1 to 4.0 units.

iC3 = conditions: produced in presence of tunicamycin; cited from earlier work

Substance: TP10HD-CXD: TP10HD-CX enzymatically deglycosylated with n-glycanase
- IH50 (concentration giving 50% inhibition of hemolysis) ([1]; comparison before and after deglycosylation): 40 ng/mL
- α phase half-life [2]: < 1 min
- β phase half-life [2]: 6.1 min
- plasma half-life / clearance, in words [3]: cleared rapidly

Substance: sCR1/pBSCR1c: soluble CR1 construct containing LHR-A, LHR-B, LHR-C, LHR-D, SCR29, SCR30 regions up to and including the first alanine residue of the transmembrane region
- post-ischemic myocardial inflammation and necrosis [4]: suppressed post-ischemic myocardial inflammation and necrosis
- activity in reversed passive Arthus reaction [5]: demonstrated in vivo activity
- survival rates following transplantation [6]: extended survival rates following transplantation

Substance: TP10HD-CX: TP10HD produced by cells cultured in a hollow fiber bioreactor and purified by HPLC cation exchange chromatography
- IH50 (concentration giving 50% inhibition of hemolysis) ([1]; SRBC, human serum as complement source): 20 ± 7 ng/mL
- α phase half-life ([7]; Study 2, iv, 1 mg/kg (Table 3 summary)): 9 to 11 min
- Peak (t = O) conc ([7]; Group 1): 16.5 ± 2.4 µg/mL
- Serum half-life ([7]; Group 1): 9.1 ± 1.4 min
- Total Clearance ([7]; Group 1): 5.8 ± 1.2 mL/min/kg
- Volume of Distribution ([7]; Group 1): 0.067 ± 0.009 L/kg
- Peak (t = O) conc ([7]; Group 2): 23.7 ± 1.7 µg/mL
- Serum half-life ([7]; Group 2): 11.1 ± 1.2 min
- Total Clearance ([7]; Group 2): 2.9 ± 0.1 mL/min/kg
- Volume of Distribution ([7]; Group 2): 0.0446 ± 0.0037 L/kg
- α phase half-life [2]: 4.3 min
- β phase half-life [2]: 167 min
- average pI, in words [8]: higher average pI than TP10HD-CC
- pI of minor isoforms ([8]; smaller quantities / minor component): ≤ 5.0

Substance: non-glycosylated form of CR1: non-glycosylated form of CR1 produced in the presence of tunicamycin
- binding to iC3 (iC3): reduced binding to iC3
